{
  "source": "paper PMC12959407",
  "about": "(Science Advances, 2026)",
  "proteins": {"B1": {"name": "recombinant WT human mitochondrial Hsp60 (mHsp60), mature form (natural protein)", "chain": "GSAKDVKFGADARALMLQGVDLLADAVAVTMGPKGRTVIIEQSWGSPKVTKDGVTVAKSIDLKDKYKNIGAKLVQDVANNTNEEAGDGTTTATVLARSIAKEGFEKISKGANPVEIRRGVMLAVDAVIAELKKQSKPVTTPEEIAQVATISANGDKEIGNIISDAMKKVGRKGVITVKDGKTLNDELEIIEGMKFDRGYISPYFINTSKGQKCEFQDAYVLLSEKKISSIQSIVPALEIANAHRKPLVIIAEDVDGEALSTLVLNRLKVGLQVVAVKAPGFGDNRKNQLKDMAIATGGAVFGEEGLTLNLEDVQPHDLGKVGEVIVTKDDAMLLKGKGDKAQIEKRIQEIIEQLDVTTSEYEKEKLNERLAKLSDGVAVLKVGGTSDVEVNEKKDRVTDALNATRAAVEEGIVLGGGCALLRCIPALDSLTPANEDQKIGIEIIKRTLKIPAMTIAKNAGVEGSLIVEKIMQSSSEVGYDAMAGDFVNMVEKGIIDPTKVVRTALLDAAGVASLLTTAEVVVTEIPKEEKDPGMGAMGGMGGGMGGGMF", "notes": "additional Gly-Ser kept at the N terminus after TEV cleavage; human mitochondrial Hsp60 without the 26-residue mitochondrial targeting signal of the 573-residue precursor; mature protein of 547 residues beginning with AKDVKFG; numbers count on: the mature protein; Forms heptameric rings; seven copies in single rings and half-footballs, fourteen in double rings, bullets and footballs; also called …"}},
  "molecular_target": "the molecule itself",
  "experiment": "cryo-EM structure; single-particle cryo-EM of purified proteins; mHsp60 10 uM and mHsp10 8 uM mixed in 20 mM tris-HCl pH 7.7, 20 mM KCl, 10 mM MgCl2, 2 mM ATP; incubated 30 s to 30 min before vitrification",
  "note": "Where “and” joins values, the source holds several entries; their conditions need not be identical. Equal values may be shown once.",
  "data": [
    {"protein": "B1", "values": [
      {"measurement": "stoichiometry N", "value": "7 and 14"}
    ]}
  ]
}
